Consider one molecule from article PMC4014985 (Scientific Reports, 2014).

Holding throughout (test): ITC
A general note: Isothermal titration calorimetry measures the heat released or taken up as one component is titrated into another.

The target in one assay is MBP-MCAF1Δ8.
The target in assay [1] is 3-methyl purine DNA glycosylase (MPG) (UniProt P29372 18-298).
In the next assay the target is MBP-HDAC3 (UniProt O15379 1-428).
MBP-HDAC3, sequence (O15379 whole entry): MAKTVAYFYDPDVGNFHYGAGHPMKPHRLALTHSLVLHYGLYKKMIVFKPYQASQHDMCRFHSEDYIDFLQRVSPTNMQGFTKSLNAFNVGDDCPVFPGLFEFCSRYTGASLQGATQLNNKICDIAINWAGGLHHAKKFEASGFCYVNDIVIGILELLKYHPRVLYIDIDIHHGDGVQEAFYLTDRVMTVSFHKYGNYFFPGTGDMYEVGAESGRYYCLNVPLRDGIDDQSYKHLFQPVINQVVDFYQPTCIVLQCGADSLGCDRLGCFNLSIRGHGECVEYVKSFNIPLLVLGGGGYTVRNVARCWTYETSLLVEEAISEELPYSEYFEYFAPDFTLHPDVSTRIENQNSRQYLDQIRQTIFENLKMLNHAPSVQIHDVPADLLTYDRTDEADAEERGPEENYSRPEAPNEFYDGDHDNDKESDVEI

3-methyl purine DNA glycosylase (MPG), sequence (P29372 18-298): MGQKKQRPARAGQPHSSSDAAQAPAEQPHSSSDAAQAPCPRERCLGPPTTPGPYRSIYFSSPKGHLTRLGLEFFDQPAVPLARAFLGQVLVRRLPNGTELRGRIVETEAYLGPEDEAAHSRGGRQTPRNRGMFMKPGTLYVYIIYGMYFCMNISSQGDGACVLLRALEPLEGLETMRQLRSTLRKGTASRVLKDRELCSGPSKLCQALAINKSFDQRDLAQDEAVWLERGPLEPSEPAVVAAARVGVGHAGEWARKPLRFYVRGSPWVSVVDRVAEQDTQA

B1: C-terminus of MBD1 (MBD1-c, residues D507-Q605) (domain or fragment, human, UniProt Q9UIS9 507-605, looked up)
chain: DEWTPGTAVLTSPVLVPGCPSKAVDPGLPSVKQEPPDPEEDKEENKDDSASKLAPEEEAGGAGTPVITEIFSLGGTRFRDTAVWLPRSKDLKKPGARKQ
Turning to B1, in the assay with MBP-MCAF1Δ8, the Ka was 160000 M⁻¹; the Kd – broadly, the constant that tells how readily two partners part at equilibrium – came out at 6.4 µM; the dH was -3.92 kcal/mol; the stoichiometry N – broadly, the number of molecules, sites or subunits per partner or assembly – came to 1.06. Besides, in assay [1], the Ka is 450000 ± 0.09 M⁻¹, the dissociation constant Kd came to 2.29 ± 0.49 µM, the dH is -0.87 ± 0.09 kcal/mol and the “stoichiometry N” value was determined as 1.1 ± 0.11. Besides, in the assay with MBP-HDAC3, the Ka amounted to 430000 ± 0.07 M⁻¹, binding was characterised by a dissociation constant (Kd) of 2.35 ± 0.37 µM, the dH is -1.75 ± 0.78 kcal/mol and the “stoichiometry N” value is 0.98 ± 0.06.
